# Experimental data from patent US20100098683A1 (Dana-Farber, published 2010).
# Molecular target: T1, GST-galectin-3 (human, UniProt P08515 1-218 = GST)
# T1 construct: Full-length galectin-3 in pGEX4T1; also called GST-galectin-3 fusion protein; GST fusion with full-length galectin-3
# Assay: GST-galectin-3 pull-down from BT549 lysates, anti-MUC1-C immunoblot
# Method: Immunoblotting and precipitates. Lysates were prepared from subconfluent cells as described (Li et al., 2001).
# T1 sequence (P08515 1-218, tags or fused parts left off): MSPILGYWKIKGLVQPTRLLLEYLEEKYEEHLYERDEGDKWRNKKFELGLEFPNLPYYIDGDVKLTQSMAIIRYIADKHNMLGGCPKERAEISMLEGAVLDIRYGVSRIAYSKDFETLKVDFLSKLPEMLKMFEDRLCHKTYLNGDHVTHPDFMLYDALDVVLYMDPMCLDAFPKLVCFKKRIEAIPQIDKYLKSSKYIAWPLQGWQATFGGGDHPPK
binder,measurement,value
"MUC1-C(N36A) (receptor, Stably expressed in BT549 cells and tested in lysates; lacks the glycosylated 25-20 kDa species; also called MUC1-C with a N36A mutation) SVVVQLTLAFREGTINVHDVETQFNQYKTEAASRYALTISDVSVSDVPFPFSAQSGAGVPGWGIALLVLVCVLVALAIVYLIALAVCQCRRKNYGQLDIFPARDTYHPMSEYPTYHTHGRYVPPSSTDRSPYEKVSAGNGGSSLSYTNPAVAATSANL",binding result,no binding
